Data reported in US9579367B2.

Target: tissue plasminogen activator (tPA)

time to achieve 50% lysis of a plasma clot (turbidity, OD405nm): 10 fold
B1: Xa-K (FXa chemically modified, via a histidine residue in its active site, with a C-terminal lysine tethered by a PEG4 spacer) (enzyme)
light: ANSFLEEMKKGHLERECMEETCSYEEAREVFEDSDKTNEFWNKYKDGDQCETSPCQNQGKCKDGLGEYTCTCLEGFEGKNCELFTRKLCSLDNGDCDQFCHEEQNSVVCSCARGYTLADNGKACIPTGPYPCGKQTLER
heavy: IVGGQECKDGECPWQALLINEENEGFCGGTILSEFYILTAAHCLYQAKRFKVRVGDRNTEQEEGGEAVHEVEVVIKHNRFTKETYDFDIAVLRLKTPITFRMNVAPACLPERDWAESTLMTQKTGIVSGFGRTHEKGRQSTRLKMLEVPYVDRNSCKLSSSFIITQNMFCAGYDTKQEDACQGDSGGPHVTRFKDTYFVTGIVSWGEGCARKGKYGIYTKVTAFLKWIDRSMKTRGLPKAKSHAPEVITSSPLK
modifications: active-site histidine (position 276 in Table A, UniProt P00742 numbering) covalently linked to (D)Phe-Pro-Arg-CH2- carrying a thiol-maleimide-PEG4 spacer with a C-terminally tethered lysine (Lys-mPEG4)
